± gives the standard deviation of the averaged measurements.
B1: library; a variant is named by its letters at N, in order (parent)
chain: GCUGUCACCGGUGUAUUACCCUAGUGGUCGACCGGUCUGAUGAGUCUNNNNNNAGACGAAACAGC

Experiments:
hypoxanthine [1] = variants of: B1; test: FACS-Seq fitted mean relative fluorescence mCherry/BFP without ligand (log10 relative fluorescence); ligand: hypoxanthine (xanthine aptamer); higher = higher reporter protein expression; settings: HEK293T, ligand present: no
In short: (§1)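 HEK293T libraries were lentivirally transduced with an mCherry reporter carrying the ribozyme switch and an EF1α-BFP marker, enriched, and incubated for 48 h with or without ligand before sorting into 6 bins by mCherry/BFP. Genomic DNA from each bin was PCR-amplified, barcoded and sequenced on MiSeq. Fluorescence is the fitted normal mean of the bin counts. The fit used log10(mCherry/BFP), and means were scaled to five spiked-in control ribozymes.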

hypoxanthine [2] = variants of: B1; test: normalized RNA/DNA level with ligand (relative to sTRSVctl = 100) (log10 (% of sTRSVctl)); ligand: hypoxanthine (xanthine aptamer); higher = less ribozyme self-cleavage, higher mRNA level; settings: ligand concentration (+) RNA-Seq: 5 mM, HEK293T, reporter: mCherry (pCS4076), ligand present: yes
In short: (§2)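 Ribozyme switch library plasmids with mCherry reporters (eGFP in certain ligand experiments) went into HEK293T cells at 4 µg per 6-well well. Where ligand was used, it was applied 1 h before transfection, and total RNA was extracted with EDTA 72 h later for reverse transcription, amplification, barcoding and sequencing. RNA level is the RNA-to-DNA read ratio normalized to a spiked-in non-cleaving sequence or to the leading sequences, then scaled and log-transformed. Scaling was ×100 with log10, the leading set comprised 25 sequences, and the cutoff was ≥100 DNA reads.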

hypoxanthine [3] = variants of: B1; test: normalized RNA/DNA level without ligand (relative to sTRSVctl = 100) (log10 (% of sTRSVctl)); ligand: hypoxanthine (xanthine aptamer); higher = less ribozyme self-cleavage, higher mRNA level; settings: HEK293T, reporter: mCherry (pCS4076), ligand present: no
In short: as §2

hypoxanthine [4] = variants of: B1; test: FACS-Seq fitted mean relative fluorescence mCherry/BFP with ligand (log10 relative fluorescence); ligand: hypoxanthine (xanthine aptamer); ligand concentration (+) FACS-Seq: 5 mM; higher = higher reporter protein expression; settings: HEK293T, ligand present: yes
In short: as §1

| Variant | FACS-Seq fitted mean (log10) (hypoxanthine [1]) | normalized RNA/DNA level with ligand (log10) (hypoxanthine [2]) | normalized RNA/DNA level without ligand (log10) (hypoxanthine [3]) | FACS-Seq fitted mean (log10) (hypoxanthine [4]) |
| --- | --- | --- | --- | --- |
| GCUGUCACCGGUGUAUUACCCUAGUGGUCGACCGGUCUGAUGAGUCUCGGUAAAGACGAAACAGC [CGGUAA] | 0.258 ± 0.03 | 1.814 ± 0.002 | 1.27 ± 0.058 | 0.537 ± 0.027 |
| GCUGUCACCGGUGUAUUACCCUAGUGGUCGACCGGUCUGAUGAGUCUGGGUAAAGACGAAACAGC [GGGUAA] | 0.396 ± 0.048 | 1.884 ± 0.0098 | 1.71 ± 0.045 | 0.6223 ± 0.0027 |
| GCUGUCACCGGUGUAUUACCCUAGUGGUCGACCGGUCUGAUGAGUCUAGGUAAAGACGAAACAGC [AGGUAA] | 0.414 ± 0.059 | 1.87 ± 0.022 | 1.6 ± 0.06 | 0.443 ± 0.069 |
| GCUGUCACCGGUGUAUUACCCUAGUGGUCGACCGGUCUGAUGAGUCUGGGUACAGACGAAACAGC [GGGUAC] | 0.1586 ± 0.00038 | 1.93 ± 0.06 | 1.68 ± 0.037 | 0.529 ± 0.049 |
| GCUGUCACCGGUGUAUUACCCUAGUGGUCGACCGGUCUGAUGAGUCUAGGUACAGACGAAACAGC [AGGUAC] | 0.133 ± 0.061 | 1.893 ± 0.017 | 1.72 ± 0.02 | 0.0782 ± 0.049 |
| GCUGUCACCGGUGUAUUACCCUAGUGGUCGACCGGUCUGAUGAGUCUCGGUAGAGACGAAACAGC [CGGUAG] | 0.498 ± 0.066 | 1.9 ± 0.036 | 1.61 ± 0.029 | 0.506 ± 0.0093 |
| GCUGUCACCGGUGUAUUACCCUAGUGGUCGACCGGUCUGAUGAGUCUGGGUAGAGACGAAACAGC [GGGUAG] | -0.254 ± 0.0079 | 1.74 ± 0.03 | 1.44 ± 0.079 | 0.395 ± 0.063 |
| GCUGUCACCGGUGUAUUACCCUAGUGGUCGACCGGUCUGAUGAGUCUAGGUAGAGACGAAACAGC [AGGUAG] | 0.161 ± 0.019 | 1.73 ± 0.019 | 1.3 ± 0.047 | 0.537 ± 0.019 |
| GCUGUCACCGGUGUAUUACCCUAGUGGUCGACCGGUCUGAUGAGUCUCGGUAUAGACGAAACAGC [CGGUAU] | 0.0356 ± 0.0062 | 1.79 ± 0.05 | 1.41 ± 0.016 | 0.468 ± 0.05 |
| GCUGUCACCGGUGUAUUACCCUAGUGGUCGACCGGUCUGAUGAGUCUGGGUAUAGACGAAACAGC [GGGUAU] | 0.137 ± 0.2 | 1.94 ± 0.053 | 1.71 ± 0.047 | 0.374 ± 0.03 |
| GCUGUCACCGGUGUAUUACCCUAGUGGUCGACCGGUCUGAUGAGUCUAGGUAUAGACGAAACAGC [AGGUAU] | 0.648 ± 0.15 | 1.871 ± 0.013 | 1.69 ± 0.03 | 0.665 ± 0.12 |
| GCUGUCACCGGUGUAUUACCCUAGUGGUCGACCGGUCUGAUGAGUCUUGGUCAAGACGAAACAGC [UGGUCA] | 0.761 ± 0.06 | 1.97 ± 0.043 | 1.84 ± 0.025 | 0.607 ± 0.11 |
| GCUGUCACCGGUGUAUUACCCUAGUGGUCGACCGGUCUGAUGAGUCUAGGUCAAGACGAAACAGC [AGGUCA] | 0.881 ± 0.045 | 1.94 ± 0.071 | 1.68 ± 0.052 | 0.729 ± 0.035 |
| GCUGUCACCGGUGUAUUACCCUAGUGGUCGACCGGUCUGAUGAGUCUGGGUCCAGACGAAACAGC [GGGUCC] | 0.29 ± 0.12 | 2 ± 0.023 | 1.991 ± 0.019 | 0.3574 ± 0.0012 |
| GCUGUCACCGGUGUAUUACCCUAGUGGUCGACCGGUCUGAUGAGUCUUGGUCGAGACGAAACAGC [UGGUCG] | -0.282 ± 0.14 | 1.924 ± 0.012 | 1.79 ± 0.06 | -0.0942 ± 0.036 |
| GCUGUCACCGGUGUAUUACCCUAGUGGUCGACCGGUCUGAUGAGUCUAGGUCGAGACGAAACAGC [AGGUCG] | 0.151 ± 0.023 | 1.861 ± 0.0041 | 1.53 ± 0.092 | 0.463 ± 0.049 |
| GCUGUCACCGGUGUAUUACCCUAGUGGUCGACCGGUCUGAUGAGUCUGGGUGAAGACGAAACAGC [GGGUGA] | 0.0881 ± 0.05 | 1.95 ± 0.033 | 1.71 ± 0.031 | 0.487 ± 0.0065 |
| GCUGUCACCGGUGUAUUACCCUAGUGGUCGACCGGUCUGAUGAGUCUAGGUGAAGACGAAACAGC [AGGUGA] | 0.38 ± 0.046 | 1.86 ± 0.028 | 1.46 ± 0.04 | 0.623 ± 0.045 |
| GCUGUCACCGGUGUAUUACCCUAGUGGUCGACCGGUCUGAUGAGUCUGGGUGCAGACGAAACAGC [GGGUGC] | 0.296 ± 0.1 | 1.9 ± 0.036 | 1.52 ± 0.017 | 0.348 ± 0.011 |
| GCUGUCACCGGUGUAUUACCCUAGUGGUCGACCGGUCUGAUGAGUCUGGGUGGAGACGAAACAGC [GGGUGG] | -0.2387 ± 0.0022 | 1.91 ± 0.046 | 1.54 ± 0.05 | 0.3262 ± 0.0019 |
| GCUGUCACCGGUGUAUUACCCUAGUGGUCGACCGGUCUGAUGAGUCUCGGUGUAGACGAAACAGC [CGGUGU] | 0.576 ± 0.076 | 1.965 ± 0.011 | 1.85 ± 0.031 | 0.586 ± 0.029 |

Source: the supplement of paper PMC6757056
